Source: PMC7733260, “Long non-coding RNA NEAT1 promotes bone metastasis of prostate cancer through N6-methyladenosine”

T1: CYCLINL1 (cyclin L1) (UniProt Q9UK58 1-526)
T1 sequence: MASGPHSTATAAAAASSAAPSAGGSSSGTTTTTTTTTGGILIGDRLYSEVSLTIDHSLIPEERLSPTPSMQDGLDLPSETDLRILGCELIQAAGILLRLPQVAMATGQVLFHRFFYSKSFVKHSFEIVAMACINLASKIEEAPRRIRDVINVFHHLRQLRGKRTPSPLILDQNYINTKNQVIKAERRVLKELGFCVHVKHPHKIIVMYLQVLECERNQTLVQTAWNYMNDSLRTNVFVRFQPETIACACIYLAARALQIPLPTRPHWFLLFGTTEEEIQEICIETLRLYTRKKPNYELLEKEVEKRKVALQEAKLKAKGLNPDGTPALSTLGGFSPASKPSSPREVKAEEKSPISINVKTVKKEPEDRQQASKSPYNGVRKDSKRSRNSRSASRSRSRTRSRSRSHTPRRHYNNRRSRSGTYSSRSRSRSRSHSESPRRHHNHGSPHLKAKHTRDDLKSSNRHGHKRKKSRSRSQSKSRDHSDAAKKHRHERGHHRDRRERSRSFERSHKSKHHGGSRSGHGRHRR


What was measured:
CYCLINL1 (cyclin L1) = molecular target: T1, CYCLINL1 (cyclin L1); assay: EMSA; 10 mM Mg2+, tRNA, RNase T1; EMSA: 10 mM Tris-Cl pH 7.5, 25 mM KCl, 10 mM MgCl2, 1 mM DTT, 100 ng/ml tRNA, 25 C 30 min, then RNase T1 37 C 15 min. Pull-down: lysate in 50 mM Tris-HCl pH 7.5, 150 mM NaCl, 1% NP-40, 0.1% SDS, 4 C 12 h; wash 50 mM Tris pH 7.4, 150 mM NaCl, 0.05% NP-40, 1 mM MgCl2; settings: protein: ivt; tags: Myc; label: 3' biotin
CDK19 = CDK19 (UniProt Q9BWU1 1-502); assay: as above; settings: protein: ivt; tags: Flag; label: 3' biotin
Chain of CDK19 (Q9BWU1 whole entry): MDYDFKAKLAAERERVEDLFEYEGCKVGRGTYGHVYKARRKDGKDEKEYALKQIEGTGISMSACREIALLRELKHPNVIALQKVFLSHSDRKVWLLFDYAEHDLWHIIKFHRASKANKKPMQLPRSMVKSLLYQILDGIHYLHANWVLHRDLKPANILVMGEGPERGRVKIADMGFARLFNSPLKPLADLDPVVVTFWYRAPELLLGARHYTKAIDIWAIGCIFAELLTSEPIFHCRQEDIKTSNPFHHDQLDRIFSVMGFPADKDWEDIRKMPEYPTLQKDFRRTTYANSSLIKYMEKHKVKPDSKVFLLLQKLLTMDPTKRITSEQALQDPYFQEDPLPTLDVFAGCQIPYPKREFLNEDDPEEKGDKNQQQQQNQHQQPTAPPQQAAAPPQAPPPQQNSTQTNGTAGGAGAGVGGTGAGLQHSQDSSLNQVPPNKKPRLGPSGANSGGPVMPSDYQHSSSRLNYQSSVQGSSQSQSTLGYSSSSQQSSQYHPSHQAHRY

| Binder | binding result (CYCLINL1 (cyclin L1)) | binding result (CDK19) |
| --- | --- | --- |
| Probe m6A in Fig3e (NEAT1-1 site #4) (ssRNA, m6A at site #4 (A3494); stoichiometry and installation not stated) RNA: UUAUUUUUAUCGUUGGGAUCUUUCUGUCUUCUGGGUUCCAUUUUUUAAAUGUUUAAAAAUAUGUUGACAUGGUAGUUCAGUUCUUAACCAAUGACUUGGGGAUGA | binds |  |
| GCAGCCCCUUUUUUUCCAGACCAAGGGCUGUGA (ssRNA) [Probe WT in Fig3e (NEAT1-1 U-rich)] |  | binds |
